Test results taken from patent US12510548B2, “Method of determining toxicity of an immunomodulatory drug for use in humans” (The Jackson Laboratory, priority 2017, dated 2025).
Like-named read-outs stand apart in the source and are kept apart here.

Columns and labels:
hPBMC humanized NSG mice [1] = assay: Human cytokine release in sera of hPBMC humanized NSG mice after drug injection (BD CBA Th1/Th2 II kit); conditions: mouse, in vivo
Method: PBMCs of nine […] different donors were used to produce humanized NSG mice for these experiments. On day 6 of hPBMC engraftment (2×10^7 PBMCs/mouse), the mice were induced for human cytokine release by i.v. injection with antibodies OKT3 (anti-CD3 mAb; BioLegend, Cat. No. 317302) or ANC28.1/5D10 (also referred to as “ANC28”, “anti-CD28 mAb,” or “anti-CD28”; Ancell, Cat. No. 177-824). PBS buffer served as a negative control. The mice were bled at 2 and 6 hours, sera were collected and analyzed for cytokine concentrations using BD Cytometric Bead Array (CBA) Human Th1/Th2 Cytokine kit II (BD, Cat. No. 551809) (See, FIGS. 5A-5F).
FIGS. 5A-5F depict multiple graphs of concentration of different cytokines (i.e., IFN-γ, IL-6, IL-2, IL-10, IL-4, and TNF, respectively) measured at 2 and 6 hours after injection of antibodies OKT3 (anti-CD3 mAb) and ANC28 (anti-CD28) into sets of humanized mice for nine (9) different donors. Mice were i.v. injected with 0.5 mg/kg OKT3 or 1 mg/kg anti-CD28, and 5 ml/kg PBS (a negative control). Mice were bled at 2 and 6 hours and circulating cytokine concentrations were measured by BD CBA Th1/Th2 II kit.
To do so, a high number of PBMCs (i.e., 5×10^7/mouse) was engrafted into the humanized NSG mice. On day 6, the mice received the drug and a cytokine release profile was determined. Here, the IFN-γ and Il-10 levels were evaluated as in the above-mentioned experiments using 2×10^7 PBMCs/mouse.
On day 6 after engraftment, the mice received the immunotherapeutic drug (mAb) and a cytokine release profile was determined in these three groups of mice. Mice were bled at 2 and 6 hours and circulating cytokine concentrations were measured by BD CBA Th1/Th2 II kit. FIGS. 10A-F depict the cytokine levels after drug injection in donor 309 humanized NSG mice engrafted with 2×10^7, 3×10^7, or 4×10^7PBMCs/mouse. FIG. 10A depicts the INFγ level for each group of mice. FIG. 10B depicts the IL-10 level for each group of mice. FIG. 10C depicts the IL-6 level for each group of mice. FIG. 10D depicts the IL-2 level for each group of mice. FIG. 10E depicts the IL-4 level for each group of mice. FIG. 10F depicts the TNF level for each group of mice.
In this study, the inventors examined different concentrations of […]® (pembrolizumab) to determine if there is dosage dependence in the CRS in humanized mice. 6-week old female NOD.Cg-Prkdc^scid Il2rg^tm1Wjl/SzJ (NSG, JAX stock number 005557) mice were irradiated with 100cGy X-ray at least 4 hours prior to human PBMCs engraftment. The PBMCs in these experiments were from donor 358. Purified/isolated human PBMCs were intravenously injected into the mice at 3×10^7 cells/mouse. Six days after PBMC engraftment, mice were iv injected with PBS (negative control), 0.5 mg/kg OKT3 (positive control), 2.5 mg/kg, 5 mg/kg, or 10 mg/kg […]®. There were 5 mice per group. These […]® dosages are in the range of dosages studied in clinical trials discussed on the U.S. prescribing information for […]®. Few adverse effect reports of severe cytokine release syndrome after […]® administration have been documented. Mice were bled at 2 and 6 hours and circulating cytokine concentrations were measured using a BD CBA Th1/Th2 II kit. As shown in FIGS. 12A-F, the level measured after injection of the positive control OKT3 was very high for each of IFN-γ, IL-10, IL-6, IL-2, IL-4, and TNF. […]

hPBMC humanized NSG mice [2] = conditions: mouse, in vivo
Excerpt: The clinical score in the mice was monitored by performing the signs and the grading of scores as follow: Score: 0=normal activity; 1=normal activity, piloerection, tiptoe gait; 2=hunched, reduced activity but still mobile; 3=hypomotile but mobile when prompted; 4=moribund (point of death). Mice with a clinical score of 4 were euthanized.
As in a reference by Brady et al., Clinical & Translational Immunology, 2014, the inventors performed the signs and the grading of scores as follow: Score: 0=normal activity; 1=normal activity, piloerection, tiptoe gait; 2=hunched, reduced activity but still mobile; 3=hypomotile but mobile when prompted; 4=moribund (point of death). Mice with a clinical score of 4 were euthanized.

human PBMCs = assay: In vitro PBMC assay of cytokine release (drug-coated plate); assay type: cell-based; conditions: donor 213; anti-CD28 10 μg/well, OKT3 1 mg/ml; supernatant day 2
Method: Day −1: Coated the plate with drugs: dilute drug (e.g., an antibody) in PBS; leave plate open under hood.
Day 0: Process PBMCs from each donor. PBMCs were from donor 213, 309, 345, or 366. Thaw PBMCs in supplemented RPMI and wash once. Count cells and re-suspend in supplemented RPMI at 1×10^6 cells/ml. Wash coated wells twice with 200 μl PBS and then once with 200 μL supplemented RPMI. Plate 100 μl of cells in each well (for a total of 1×10^5 cells per well).
Day 2: Harvest supernatant from each well and measure the cytokine level using a BD CBA Th1/Th2 II kit.
The two methods for determining cytokine release levels after a drug treatment were compared for treatment of PBMCs from four different donors with an anti-CD28 antibody (Ancell, Cat. No. 177-824). For the in vitro assay, anti-CD28 was dosed at 10 μg/well in the 96 well plates. For the in vivo method, anti-CD28 was dosed at 1 mg/kg. Supernatants of the in vitro PBMC culture wells and serum from the mice were collected and cytokine levels were measured. Antibody OKT3 (0.5 mg/kg for the in vivo assay or 1 mg/ml for the in vitro assay) was used as a positive control and either PBS or isotype antibodies were used as negative controls in the in vivo assay or the in vitro assay, respectively. The cytokine levels determined are presented in FIGS. 14A (IFN-γ and IL-10) and 14B (IL-6 and IL-4) as mean values±standard error of the mean (SEM).

non-humanized mice = assay: Administration of antibodies to non-humanized mice, cytokine responses; conditions: mouse, in vivo
hPBMC humanized NSG mice [3] = conditions: mouse, in vivo; remark: listed apart in the source
Method: Rectal temperature of the mice of Examples 5 and 6 was measured before treatment and again immediately before each time-point bleed. […] Rectal temperature was measured in hPMBCs humanized mice of 10 donors injected with control PBS, OKT3, and anti-CD28. The number of mice for each group was 2-5 and data are presented as mean±SEM.
Rectal temperature of the mice was measured before treatment and again immediately before each time-point bleed. Temperature was measured by the insertion of a rectal thermocouple probe and waiting until a stable reading was obtained.

NK cells = conditions: cited from earlier work

## muromonab-CD3 [OKT3]
hPBMC humanized NSG mice [1]
  cytokine levels in non-irradiated mice compared to irradiated mice: consistently lower
  major inflammatory cytokines in treated humanized mice: significant increase in major inflammatory cytokines
hPBMC humanized NSG mice [1]; iv, 0.5 mg/kg
  level of each of IFN-γ, IL-10, IL-6, IL-2, IL-4, and TNF: very high
hPBMC humanized NSG mice [2]
  clinical score: 1
Human PBMCs
  IFN-γ, IL-10, IL-6, and IL-4 levels versus control isotype antibody, in vitro: much higher than levels determined after dosing with the control isotype antibody
non-humanized mice
  cytokine responses in non-humanized mice: did not induce the cytokine responses
hPBMC humanized NSG mice [3]
  body temperature (rectal): below 36 °C

## pembrolizumab
hPBMC humanized NSG mice [1]
  cytokine levels in non-irradiated mice compared to irradiated mice: consistently lower
hPBMC humanized NSG mice [1]; iv, 2.5 mg/kg
  cytokine levels: within the error range of the level measured for the PBS control group
hPBMC humanized NSG mice [2]; 5 mg/kg
  clinical score: the same as positive control
hPBMC humanized NSG mice [2]; 10 mg/kg
  clinical score: the same as positive control

## alemtuzumab [CAMPATH 1-H]
NK cells
  cytokine release in vivo: high levels of TNF, IFN-γ and IL-6
